In assay [1] the target is T1, HA-tagged NLRC5 (human NLRC5, full length) (human, UniProt Q86WI3 1-1866).
T1 construct: Expressed from pcDNA3.1 with an HA tag in transfected 293T cells; used in lysates for co-immunoprecipitation; General statements about NLRC5 in overexpression experiments are put on this molecule; also called HA-NLRC5
The assay is described as follows: co-IP (anti-Flag or anti-HA beads) and Western blot, FIG. 15.

The target in assay [2] is T1, HA-tagged NLRC5 (human NLRC5, full …). The assay is described as follows: co-IP (anti-HA beads) and Western blot (anti-Flag), transfected 293T cells. (Immunoblotting shows a protein as a band on a membrane.)
In assay [3] the target is T2, endogenous mouse NLRC5 (RAW264.7 cells) (mouse, UniProt C3VPR6 1-1915, limits assumed).
T2 construct: Endogenous protein; also called mNLRC5; endogenous mNLRC5
T2 sequence (C3VPR6 whole entry G881R): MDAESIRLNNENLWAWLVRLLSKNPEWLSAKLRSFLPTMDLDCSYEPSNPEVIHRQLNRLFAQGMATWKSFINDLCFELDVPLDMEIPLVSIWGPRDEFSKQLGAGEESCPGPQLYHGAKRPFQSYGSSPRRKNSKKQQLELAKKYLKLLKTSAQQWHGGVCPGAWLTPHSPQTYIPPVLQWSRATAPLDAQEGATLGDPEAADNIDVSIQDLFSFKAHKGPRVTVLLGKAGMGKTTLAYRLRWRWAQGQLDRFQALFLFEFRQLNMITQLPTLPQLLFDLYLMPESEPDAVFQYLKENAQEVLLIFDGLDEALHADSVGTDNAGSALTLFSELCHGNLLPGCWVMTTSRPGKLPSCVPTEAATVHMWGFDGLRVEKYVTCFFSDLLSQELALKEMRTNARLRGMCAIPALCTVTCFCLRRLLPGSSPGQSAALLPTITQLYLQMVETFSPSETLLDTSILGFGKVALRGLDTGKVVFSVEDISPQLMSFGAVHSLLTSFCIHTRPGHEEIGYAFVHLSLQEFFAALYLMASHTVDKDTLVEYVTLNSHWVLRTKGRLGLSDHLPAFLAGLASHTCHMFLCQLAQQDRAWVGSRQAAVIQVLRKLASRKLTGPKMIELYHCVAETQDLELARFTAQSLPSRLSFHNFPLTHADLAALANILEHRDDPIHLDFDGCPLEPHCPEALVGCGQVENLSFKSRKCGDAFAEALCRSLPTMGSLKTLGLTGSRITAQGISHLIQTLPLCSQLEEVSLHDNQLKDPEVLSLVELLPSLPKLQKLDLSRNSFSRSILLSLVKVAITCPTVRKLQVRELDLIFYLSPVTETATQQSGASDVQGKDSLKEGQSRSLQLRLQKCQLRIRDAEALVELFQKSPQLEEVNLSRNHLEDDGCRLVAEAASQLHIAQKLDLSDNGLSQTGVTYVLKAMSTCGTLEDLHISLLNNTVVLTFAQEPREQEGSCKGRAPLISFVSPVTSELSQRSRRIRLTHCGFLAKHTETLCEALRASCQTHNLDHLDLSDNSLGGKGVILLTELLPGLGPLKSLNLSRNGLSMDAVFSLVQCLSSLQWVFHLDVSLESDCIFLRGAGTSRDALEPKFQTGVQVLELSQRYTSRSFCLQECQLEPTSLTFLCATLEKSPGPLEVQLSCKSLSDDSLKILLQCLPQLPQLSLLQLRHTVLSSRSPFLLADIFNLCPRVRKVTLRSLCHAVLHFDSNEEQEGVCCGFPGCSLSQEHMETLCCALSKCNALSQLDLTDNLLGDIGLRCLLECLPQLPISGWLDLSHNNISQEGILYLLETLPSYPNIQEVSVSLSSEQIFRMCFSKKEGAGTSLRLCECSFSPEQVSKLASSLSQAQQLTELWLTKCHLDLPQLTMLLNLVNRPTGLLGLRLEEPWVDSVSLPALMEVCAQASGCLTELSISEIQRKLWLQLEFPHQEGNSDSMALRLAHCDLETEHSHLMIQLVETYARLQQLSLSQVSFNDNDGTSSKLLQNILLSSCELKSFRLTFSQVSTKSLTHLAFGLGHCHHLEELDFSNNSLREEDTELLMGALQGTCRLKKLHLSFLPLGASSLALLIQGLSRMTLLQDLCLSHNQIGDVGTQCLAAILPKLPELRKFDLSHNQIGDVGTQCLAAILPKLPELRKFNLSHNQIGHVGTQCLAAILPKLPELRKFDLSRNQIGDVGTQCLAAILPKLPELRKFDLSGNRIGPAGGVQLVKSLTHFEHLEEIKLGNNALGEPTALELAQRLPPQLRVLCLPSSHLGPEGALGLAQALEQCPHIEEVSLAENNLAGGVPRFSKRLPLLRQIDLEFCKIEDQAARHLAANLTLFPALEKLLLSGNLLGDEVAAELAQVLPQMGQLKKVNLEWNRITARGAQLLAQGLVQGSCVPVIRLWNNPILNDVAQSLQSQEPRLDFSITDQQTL
In words: IP of RAW264.7 lysate with anti-mNLRC5, Western blot with anti-NEMO.

T1 sequence (Q86WI3 whole entry N907D): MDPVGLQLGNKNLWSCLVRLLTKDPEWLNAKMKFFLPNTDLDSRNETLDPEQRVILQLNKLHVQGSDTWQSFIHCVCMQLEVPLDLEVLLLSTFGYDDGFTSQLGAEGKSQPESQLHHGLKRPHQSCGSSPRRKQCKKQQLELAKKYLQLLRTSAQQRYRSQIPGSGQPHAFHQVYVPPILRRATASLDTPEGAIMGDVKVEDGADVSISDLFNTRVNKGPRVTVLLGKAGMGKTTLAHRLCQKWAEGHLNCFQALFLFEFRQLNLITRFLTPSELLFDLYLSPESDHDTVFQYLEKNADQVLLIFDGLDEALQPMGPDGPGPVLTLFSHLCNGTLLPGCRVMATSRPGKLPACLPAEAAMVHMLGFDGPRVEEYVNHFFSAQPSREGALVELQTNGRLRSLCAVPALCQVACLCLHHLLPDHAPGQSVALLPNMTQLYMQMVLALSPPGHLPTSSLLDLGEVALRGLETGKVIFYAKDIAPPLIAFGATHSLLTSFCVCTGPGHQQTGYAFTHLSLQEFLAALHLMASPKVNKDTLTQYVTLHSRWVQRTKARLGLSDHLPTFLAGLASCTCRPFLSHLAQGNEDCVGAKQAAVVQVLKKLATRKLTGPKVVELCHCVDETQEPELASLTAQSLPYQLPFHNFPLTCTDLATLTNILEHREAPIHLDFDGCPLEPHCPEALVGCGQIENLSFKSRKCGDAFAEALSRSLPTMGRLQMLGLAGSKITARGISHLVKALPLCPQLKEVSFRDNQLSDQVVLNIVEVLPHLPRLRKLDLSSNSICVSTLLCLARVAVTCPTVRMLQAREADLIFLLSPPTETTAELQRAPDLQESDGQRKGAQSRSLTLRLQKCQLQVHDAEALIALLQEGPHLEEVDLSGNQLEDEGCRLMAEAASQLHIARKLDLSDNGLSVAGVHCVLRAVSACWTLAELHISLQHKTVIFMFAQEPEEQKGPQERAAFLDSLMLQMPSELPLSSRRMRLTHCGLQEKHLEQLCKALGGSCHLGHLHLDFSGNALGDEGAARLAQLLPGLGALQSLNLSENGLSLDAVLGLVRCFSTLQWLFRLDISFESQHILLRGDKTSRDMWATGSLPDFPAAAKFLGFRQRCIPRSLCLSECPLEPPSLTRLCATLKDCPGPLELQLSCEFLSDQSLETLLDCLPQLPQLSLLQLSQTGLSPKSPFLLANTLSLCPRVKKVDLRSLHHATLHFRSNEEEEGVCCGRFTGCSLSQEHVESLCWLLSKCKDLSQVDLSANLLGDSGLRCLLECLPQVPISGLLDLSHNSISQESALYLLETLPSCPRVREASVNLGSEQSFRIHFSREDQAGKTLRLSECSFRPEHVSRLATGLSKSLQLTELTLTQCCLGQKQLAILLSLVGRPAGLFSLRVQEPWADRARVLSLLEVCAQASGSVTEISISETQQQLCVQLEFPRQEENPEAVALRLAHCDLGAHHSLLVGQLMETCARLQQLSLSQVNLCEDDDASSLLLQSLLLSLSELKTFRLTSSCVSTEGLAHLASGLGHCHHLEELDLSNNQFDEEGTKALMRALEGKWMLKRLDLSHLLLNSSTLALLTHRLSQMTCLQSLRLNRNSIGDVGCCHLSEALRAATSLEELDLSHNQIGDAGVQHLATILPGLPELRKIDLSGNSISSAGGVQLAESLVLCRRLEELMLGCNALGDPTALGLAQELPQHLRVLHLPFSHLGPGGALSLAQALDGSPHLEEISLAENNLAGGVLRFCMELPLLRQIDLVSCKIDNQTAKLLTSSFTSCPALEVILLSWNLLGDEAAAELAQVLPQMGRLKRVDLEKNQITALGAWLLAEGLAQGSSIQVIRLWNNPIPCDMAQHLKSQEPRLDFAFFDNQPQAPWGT

B1: TBK1 (expressed in 293T cells) (enzyme, UniProt Q9UHD2 1-729, looked up, not shown: small tags and cut ends)
chain: MQSTSNHLWLLSDILGQGATANVFRGRHKKTGDLFAIKVFNNISFLRPVDVQMREFEVLKKLNHKNIVKLFAIEEETTTRHKVLIMEFCPCGSLYTVLEEPSNAYGLPESEFLIVLRDVVGGMNHLRENGIVHRDIKPGNIMRVIGEDGQSVYKLTDFGAARELEDDEQFVSLYGTEEYLHPDMYERAVLRKDHQKKYGATVDLWSIGVTFYHAATGSLPFRPFEGPRRNKEVMYKIITGKPSGAISGVQKAENGPIDWSGDMPVSCSLSRGLQVLLTPVLANILEADQEKCWGFDQFFAETSDILHRMVIHVFSLQQMTAHKIYIHSYNTATIFHELVYKQTKIISSNQELIYEGRRLVLEPGRLAQHFPKTTEENPIFVVSREPLNTIGLIYEKISLPKVHPRYDLDGDASMAKAITGVVCYACRIASTLLLYQELMRKGIRWLIELIKDDYNETVHKKTEVVITLDFCIRNIEKTVKVYEKLMKINLEAAELGEISDIHTKLLRLSSSQGTIETSLQDIDSRLSPGGSLADAWAHQEGTHPKDRNVEKLQVLLNCMTEIYYQFKKDKAERRLAYNEEQIHKFDKQKLYYHATKAMTHFTDECVKKYEAFLNKSEEWIRKMLHLRKQLLSLTNQCFDIEEEVSKYQEYTNELQETLPQKMFTASSGIKHTMTPIYPSSNTLVEMTLGMKKLKEEMEGVVKELAENNHILERFGSLTMDGGLRNVDCL
In the case of B1, the binding result in assay [1] is on record as “no binding”.

B2: IRF3 (expressed in 293T cells) (other, UniProt Q14653 1-427, looked up, not shown: small tags and cut ends)
chain: MGTPKPRILPWLVSQLDLGQLEGVAWVNKSRTRFRIPWKHGLRQDAQQEDFGIFQAWAEATGAYVPGRDKPDLPTWKRNFRSALNRKEGLRLAEDRSKDPHDPHKIYEFVNSGVGDFSQPDTSPDTNGGGSTSDTQEDILDELLGNMVLAPLPDPGPPSLAVAPEPCPQPLRSPSLDNPTPFPNLGPSENPLKRLLVPGEEWEFEVTAFYRGRQVFQQTISCPEGLRLVGSEVGDRTLPGWPVTLPDPGMSLTDRGVMSYVRHVLSCLGGGLALWRAGQWLWAQRLGHCHTYWAVSEELLPNSGHGPDGEVPKDKEGGVFDLGPFIVDLITFTEGSGRSPRYALWFCVGESWPQDQPWTKRLVMVKVVPTCLRALVEMARVGGASSLENTVDLHISNSHPLSLTSDQYKAYLQDLVEGMDFQGPGES
In the case of B2, the binding result in assay [1] is reported as “no binding”.

B3: Flag-MAVS (other, UniProt Q7Z434 1-540, looked up, not shown: small tags and cut ends)
chain: MPFAEDKTYKYICRNFSNFCNVDVVEILPYLPCLTARDQDRLRATCTLSGNRDTLWHLFNTLQRRPGWVEYFIAALRGCELVDLADEVASVYQSYQPRTSDRPPDPLEPPSLPAERPGPPTPAAAHSIPYNSCREKEPSYPMPVQETQAPESPGENSEQALQTLSPRAIPRNPDGGPLESSSDLAALSPLTSSGHQEQDTELGSTHTAGATSSLTPSRGPVSPSVSFQPLARSTPRASRLPGPTGSVVSTGTSFSSSSPGLASAGAAEGKQGAESDQAEPIICSSGAEAPANSLPSKVPTTLMPVNTVALKVPANPASVSTVPSKLPTSSKPPGAVPSNALTNPAPSKLPINSTRAGMVPSKVPTSMVLTKVSASTVPTDGSSRNEETPAAPTPAGATGGSSAWLDSSSENRGLGSELSKPGVLASQVDSPFSGCFEDLAISASTSLGMGPCHGPEENEYKSEGTFGIHVAENPSIQLLEGNPGPPADPDGGPRPQADRKFQEREVPCHRPSPGALWLQVAVTGVLVVTLLVVLYRRRLH
Take B3: the binding result in assay [2] is recorded as “no binding”.

B4: endogenous NEMO (RAW264.7 cells) (other, mouse, UniProt O88522 1-412, looked up)
chain: MNKHPWKNQLSEMVQPSGGPAEDQDMLGEESSLGKPAMLHLPSEQGTPETLQRCLEENQELRDAIRQSNQMLRERCEELLHFQVSQREEKEFLMCKFQEARKLVERLSLEKLDLRSQREQALKELEQLKKCQQQMAEDKASVKAQVTSLLGELQESQSRLEAATKDRQALEGRIRAVSEQVRQLESEREVLQQQHSVQVDQLRMQNQSVEAALRMERQAASEEKRKLAQLQAAYHQLFQDYDSHIKSSKGMQLEDLRQQLQQAEEALVAKQELIDKLKEEAEQHKIVMETVPVLKAQADIYKADFQAERHAREKLVEKKEYLQEQLEQLQREFNKLKVGCHESARIEDMRKRHVETPQPPLLPAPAHHSFHLALSNQRRSPPEEPPDFCCPKCQYQAPDMDTLQIHVMECIE
Turning to B4, in assay [3], the binding result is given as “no binding”.

B5: TRAF3 (expressed in 293T cells) (other, UniProt Q13114 1-568, looked up, not shown: small tags and cut ends)
chain: MESSKKMDSPGALQTNPPLKLHTDRSAGTPVFVPEQGGYKEKFVKTVEDKYKCEKCHLVLCSPKQTECGHRFCESCMAALLSSSSPKCTACQESIVKDKVFKDNCCKREILALQIYCRNESRGCAEQLMLGHLLVHLKNDCHFEELPCVRPDCKEKVLRKDLRDHVEKACKYREATCSHCKSQVPMIALQKHEDTDCPCVVVSCPHKCSVQTLLRSELSAHLSECVNAPSTCSFKRYGCVFQGTNQQIKAHEASSAVQHVNLLKEWSNSLEKKVSLLQNESVEKNKSIQSLHNQICSFEIEIERQKEMLRNNESKILHLQRVIDSQAEKLKELDKEIRPFRQNWEEADSMKSSVESLQNRVTELESVDKSAGQVARNTGLLESQLSRHDQMLSVHDIRLADMDLRFQVLETASYNGVLIWKIRDYKRRKQEAVMGKTLSLYSQPFYTGYFGYKMCARVYLNGDGMGKGTHLSLFFVIMRGEYDALLPWPFKQKVTLMLMDQGSSRRHLGDAFKPDPNSSSFKKPTGEMNIASGCPVFVAQTVLENGTYIKDDTIFIKVIVDTSDLPDP
On to B5, for which the binding result in assay [1] was “no binding”.

B6: IKKi (expressed in 293T cells, detected with anti-Flag) (enzyme, UniProt Q14164 1-716, looked up, not shown: small tags and cut ends)
chain: MQSTANYLWHTDDLLGQGATASVYKARNKKSGELVAVKVFNTTSYLRPREVQVREFEVLRKLNHQNIVKLFAVEETGGSRQKVLVMEYCSSGSLLSVLESPENAFGLPEDEFLVVLRCVVAGMNHLRENGIVHRDIKPGNIMRLVGEEGQSIYKLTDFGAARELDDDEKFVSVYGTEEYLHPDMYERAVLRKPQQKAFGVTVDLWSIGVTLYHAATGSLPFIPFGGPRRNKEIMYRITTEKPAGAIAGAQRRENGPLEWSYTLPITCQLSLGLQSQLVPILANILEVEQAKCWGFDQFFAETSDILQRVVVHVFSLSQAVLHHIYIHAHNTIAIFQEAVHKQTSVAPRHQEYLFEGHLCVLEPSVSAQHIAHTTASSPLTLFSTAIPKGLAFRDPALDVPKFVPKVDLQADYNTAKGVLGAGYQALRLARALLDGQELMFRGLHWVMEVLQATCRRTLEVARTSLLYLSSSLGTERFSSVAGTPEIQELKAAAELRSRLRTLAEVLSRCSQNITETQESLSSLNRELVKSRDQVHEDRSIQQIQCCLDKMNFIYKQFKKSRMRPGLGYNEEQIHKLDKVNFSHLAKRLLQVFQEECVQKYQASLVTHGKRMRVVHETRNHLRLVGCSVAACNTEAQGVQESLSKLLEELSHQLLQDRAKGAQASPPPIAPYPSPTRKDLLLHMQELCEGMKLLASDLLDNNRIIERLNRVPAPPDV
Regarding B6, the binding result in assay [2] is “no binding”.

Values taken from patent US20110229560A1 (published 2011).
